Molecular target: human FcγRIIA (R131 variant) expressed on Jurkat cells (UniProt P12318)
Test: FLIM
Settings: Jurkat cells co-expressing FcγRIIA and Mac-1; donor anti-FcγRIIA IV.3 AF488 + acceptor anti-Mac-1 (CD11b) ICRF44 AF568; n = 3 experiments

Sequence of UniProt P12318 (P12318 34-217, change not shown): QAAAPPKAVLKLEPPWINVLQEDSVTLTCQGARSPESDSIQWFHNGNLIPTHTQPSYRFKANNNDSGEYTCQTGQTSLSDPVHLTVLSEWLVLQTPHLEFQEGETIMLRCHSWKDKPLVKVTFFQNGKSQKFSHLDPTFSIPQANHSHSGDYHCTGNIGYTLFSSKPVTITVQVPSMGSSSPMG

other: FcγRIIA fluorescence lifetime tm (donor + acceptor): 1830 ps
Substance: human Mac-1 (CD11b/CD18), wild type, expressed on Jurkat cells (from UniProt P11215;P05107) E253-R261 (… replaced with … of CD11a)
